Experimental data: US20140298494A1, “ANIMAL MODEL OF AUTISM” (Beth Israel Deaconess Medical Center, Inc., priority 2011, published 2014)
“Also recorded” adds a separate entry of the source.

Columns and labels:
[1] = test system: non-NMDA receptor; assay: inhibition of minimal-stimulation single fiber EPSC amplitude by γ-DGG in layer 2/3 barrel cortex pyramidal neurons (brain slices); type: cell-based, mouse; conditions: γ-DGG 300 μM; Ube3a (2×) transgenic vs wild-type neurons; P=0.0127, n=7-8
Method: The vesicle glutamate content was estimated by the relative inhibition of mean single fiber EPSC amplitude by the fast off-rate, non-NMDA receptor blocker γ-DGG (300 μM). The higher the percentage inhibition by γ-DGG, the lower the concentration of synaptic glutamate. Detailed protocols are available in the Extended Experimental Procedures.
The vesicle glutamate content was estimated by the relative inhibition of mean single fiber EPSC amplitude by the fast off-rate, non-NMDA receptor blocker γ-DGG (300 μM). The higher the percentage inhibition by γ-DGG, the lower the concentration of synaptic glutamate (see ref. 21). To selectively stimulate a single fiber in layer 2/3 of the barrel cortex, minimal stimuli were delivered through ACSF-filled bipolar glass electrodes pulled from 2.0 mm OD dual barrel theta capillary glass (Warner Instruments). The tip of the stimulating electrodes is about 2 μm. To establish a minimal stimulation, we first sought for the highest stimulus that gave all failures. […] To acquire a reasonable number of EPSCs from 40-100 trials in both baseline and γ-DGG conditions at 0.3 Hz, we adjusted the stimulation intensity to give about 10% failures (WT: 9.7±2.4%, n=8; 1×: 9.7±3.4%, n=8; 2×: 11.6±4.6%, […]; F(2, 21)=0.106, P=0.90). Under this failure rate, the calculated quantal content was about 2. […]

[2] = test system: recombinant Arc
[3] = test system: recombinant Arc; assay: in vitro target protein degradation (ubiquitination) assay with immunoprecipitated Ube3a-FLAG; type: biochemical; conditions: FLAG antibody immunoprecipitate from Tg cortical lysate; control Wt 1.26±0.04; P=0.01; n=3 independent in vitro assays
Method: Ube3a expression was confirmed by western blot of cortical lysates using both anti-FLAG M2 antibody (Sigma) and anti-Ube3a (BD Biosciences). The ubiquitin ligase activity of Ube3a was assayed by an in vitro target protein degradation assay. Ube3a was immunoprecipitated using anti-FLAG M2 antibodies and protein G magnetic beads (NEB) and eluted in non-denaturing conditions using a 3× FLAG peptide (Sigma). 1 μg of recombinant ARC (BD Biosciences) was added to 10 μl of immunoprecipitated Ube3a in the presence of 50 ng E1 and 100 ng UbcH7 enzymes and 4 μg HA-ubiquitin (Boston Bioproducts) as in (19). Western blots were probed with anti-ARC (Santa Cruz) and quantified using ImageJ (NIH). Detailed protocols are available in the Extended Experimental Procedures.
Cortical lysates were prepared in PBS with 1% TritonX-100 and protease inhibitors, incubated with 4 μg of anti-FLAG antibodies overnight, and with 50 μl of protein G magnetic beads (NEB) for immunoprecipitation (IP). Beads were washed 5× with PBS and Ube3a-FLAG was eluted with 3× FLAG peptide (Sigma) in 100 μl PBS, and IP success was confirmed by western blot. […]

N[C@H](CCC(=O)NCC(=O)O)C(=O)O [γDGG, γ-D-glutamylglycine]
Reduction of EPSC amplitude by γ-DGG [1]: reduce EPSC amplitude to a greater extent in Ube3a (2×) transgenic than in wild-type neurons; also recorded: increased γDGG inhibition in Ube3a transgenic mice

FLAG-tagged full length Ube3a (transgenic mouse Ube3a with C-terminal 3×FLAG tag, immunoprecipitated from cortical lysates of transgenic mice)
in vitro target protein degradation assay (Arc on western blot probed with anti-ARC, quantified with ImageJ) [2]: mean±SEM Wt: 1.26±0.04 vs. Tg: 0.58±0.16; P=0.01 by t test; n=3 independent in vitro assays

B1: transgenic Ube3a: full-length FLAG-tagged transgenic Ube3a ubiquitin ligase immunoprecipitated from transgenic mouse cortical lysate (protein, UniProt O08759 1-870, looked up)
chain: MATACKRSPGESQSEDIEASRMKRAAAKHLIERYYHQLTEGCGNEACTNEFCASCPTFLRMDNNAAAIKALELYKINAKLCDPHPSKKGASSAYLENSKGASNNSEIKMNKKEGKDFKDVIYLTEEKVYEIYEFCRESEDYSPLIRVIGRIFSSAEALVLSFRKVKQHTKEELKSLQEKDEDKDEDEKEKAACSAAAMEEDSEASSSRMGDSSQGDNNVQKLGPDDVTVDIDAIRRVYSSLLANEKLETAFLNALVYLSPNVECDLTYHNVYTRDPNYLNLFIIVMENSNLHSPEYLEMALPLFCKAMCKLPLEAQGKLIRLWSKYSADQIRRMMETFQQLITYKVISNEFNSRNLVNDDDAIVAASKCLKMVYYANVVGGDVDTNHNEEDDEEPIPESSELTLQELLGDERRNKKGPRVDPLETELGVKTLDCRKPLISFEEFINEPLNDVLEMDKDYTFFKVETENKFSFMTCPFILNAVTKNLGLYYDNRIRMYSERRITVLYSLVQGQQLNPYLRLKVRRDHIIDDALVRLEMIAMENPADLKKQLYVEFEGEQGVDEGGVSKEFFQLVVEEIFNPDIGMFTYDEATKLFWFNPSSFETEGQFTLIGIVLGLAIYNNCILDVHFPMVVYRKLMGKKGTFRDLGDSHPVLYQSLKDLLEYEGSVEDDMMITFQISQTDLFGNPMMYDLKENGDKIPITNENRKEFVNLYSDYILNKSVEKQFKAFRRGFHMVTNESPLKYLFRPEEIELLICGSRNLDFQALEETTEYDGGYTRESVVIREFWEIVHSFTDEQKRLFLQFTTGTDRAPVGGLGKLKMIIAKNGPDTERLPTSHTCFNVLLLPEYSSKEKLKERLLKAITYAKGFGML
modifications: full-length FLAG tag
notes: full-length FLAG-tagged transgenic Ube3a ubiquitin ligase immunoprecipitated from transgenic mouse cortical lysate
Recombinant Arc level after in vitro degradation (western blot, mean±SEM) [3]: 0.58±0.16
